From patent US20250043290A1, “RNA SEQUENCES THAT INDUCE FLUORESCENCE OF SMALL MOLECULE FLUOROPHORES, MOLECULAR COMPLEXES, SENSORS, AND METHODS OF USE THEREOF” (CORNELL UNIVERSITY, priority 2021, published 2025) come the findings set out here.

A short description of data set [1]: Photophysical properties of fluorophores and RNA-fluorophore complexes (Squash study). The format is physicochemical. The gist of the method:
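Gel-purified RNAs in 40 mM HEPES-KOH pH 7.4, 100 mM KCl, 0.5 mM MgCl2, with RNA in excess over fluorophore for absorption, excitation and emission spectra. Quantum yields used 10 μM RNA and 0.2 μM fluorophore, from integrated emission versus Broccoli-DFHBI-1T or Corn-DFHO.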

Data set [2] is described as follows: Fluorescence activation of DFHBI-1T by aptamers in vitro. The format is biochemical. An excerpt: FIG. 1A is a schematic illustrating the strategy for evolution of the add A-riboswitch aptamer. Indicated are helices P1-P3, junctional strands (J1/2, J2/3, J3/1), kissing loop (gray lines), and adenine interactions with the aptamer (dotted line) (5′-CUUCAUAUAAUCCUAAUGAUAUGGUUUGGGAGUUUCUACCAAGAGCCUUAAACUCUUGAUUAUGAAG-3′ (SEQ ID NO:36)). The chemical structure of adenine and fluorophores are shown. Three regions (Region 1: 5′-UAU AAU-3′ (SEQ ID NO:37)), Region 2: 5′-AGU UUC UAC C-3′ (SEQ ID NO:38); Region 3: 5′-GAU UAU-3′ SEQ ID NO:39), which include J1/2, J2/3, and J3/1 were randomized in both size and sequence resulting in a sprouts/clips library for SELEX. Each nucleotide in the colored regions was replaced using a combination of random stochastic deletion (designated “N”) and random stochastic insertion (designated “n”). FIG. 1B is schematic showing a three dimensional structure of the add A-riboswitch aptamer highlighting the adenine-binding pocket (PDB 1Y26). The mutagenized regions are shown in the same color as FIG. 1A. Adenine is indicated by the arrow. FIG. 1C is a schematic illustrating the evolution of the add A-riboswitch aptamer into Squash, a DFHBI-1T-binding aptamer. The sprouts/clips library was selected for binding to DFHBI-conjugated agarose resulting in aptamer 9-1. Aptamer 9-1 was subjected to two consecutive rounds of directed evolution generating DE2-6. A pair of mutations was introduced in DE2-6 to strengthen the kissing loop interaction resulting in Squash. FIG. 1D is a graph showing fluorescence activation of DFHBI-1T by different aptamer intermediates that led to Squash. The values inside the bars indicate fold-activation of DFHBI-1T fluorescence by the corresponding aptamer. Data represent mean values±s.d. for n=3 independent experiments. […]
FIG. 6A is a bar graph showing fluorescence activation of DFHO by Squash and its precursors. Fluorescence was measured with 200 nM dye and 10 μM RNA (ex: 495 nm, em: 562 nm, except for Corn; ex: 505 nm, em: 545 nm). […] FIG. 6B is a bar graph showing fluorescence of initial hits after Round 7 of SELEX. In vitro transcribed RNAs from each hit (1 μM final) were mixed with DFHBI-1T (10 μM final) and the fluorescence was measured (ex: 452 nm, em: 503 nm, except for Broccoli; ex: 472 nm, em: 507 nm). […] FIGS. 6C-6D are bar graphs showing fluorescence measurements of the hits with DFHBI-1T after first (FIG. 6C) and second (FIG. 6D) round of directed evolution, measured as in FIG. 6B. […] FIG. 6E is a bar graph showing fluorescence measurements of hits using DFHO after the second round of directed evolution measured as in FIG. 6A. The fluorescence of the hits were normalized against Corn. […] FIG. 6F is a graph showing normalized fluorescence. […] Fluorescence was measured as in FIG. 6A. […]

B1: Squash: fluorogenic RNA aptamer evolved from the add A-riboswitch aptamer, binds DFHBI-1T and DFHO; SEQ ID NO: 12 (SEQ ID NO: 1) (nucleic acid)
chain: AGGUGAGCCCAAUAAUACGGUUUGGGUUAGGAUAGGAAGUAGAGCCGUAAACUCUCUAAGCG
modifications: RNA, backbone not given here
With B1, in data set [1], the “Quantum yield with DFHBI-1T” value is reported as 0.71 and the “Quantum yield with DFHO” value came to 0.60. In addition, the “Emission maxima with DFHO” value in data set [1] (10 μM RNA, 1 μM DFHO) was 562 nm. In addition, the “Abs max in complex with DFHBI-1T” value in data set [1] (50 μM RNA, 5 μM DFHBI-1T) is recorded as 450 nm. For the same molecule, the “Fold activation of DFHBI-1T fluorescence” value in data set [2] is 1064 fold.
